Experiment [1] concerns the target T1, Human IL-33-his (human, UniProt O95760 112-270, biotinylated with EZ-Link NHS-Biotin where used as IL-33-his-biotin).
T1 construct: Used plain (SPR, cell assays) and biotinylated (ELISA); also called IL-33-his-biotin
T1 sequence: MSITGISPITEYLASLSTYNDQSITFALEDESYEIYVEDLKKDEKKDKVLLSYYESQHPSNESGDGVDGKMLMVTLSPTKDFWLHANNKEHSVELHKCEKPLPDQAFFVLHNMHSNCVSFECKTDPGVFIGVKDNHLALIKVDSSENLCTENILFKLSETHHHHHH
As to the kind of experiment: ELISA as Example 9, IL-33-his-biotin on streptavidin plate; run with HuG, Hu1, Hu2. The protocol:
(§1) SA protein was diluted to 2 μg/mL to coat ELISA plate at 100 μL/well overnight at 4° C. The plate was washed with PBST (PBS containing 0.05% Tween20) for 3 times, and blocked with 2% BSA prepared in PBS at 200 μL/well, at room temperature for 2 h. After the plate was washed twice with PBST, IL-33-his-biotin protein was diluted to 1 μg/mL with 1% BSA prepared in PBST, and was added to ELISA plate at 100 μL/well. The plate was incubated at room temperature for 1 h, and each monoclonal antibody was diluted with 1% BSA prepared in PBST in a 3-fold gradient. The highest concentration of antibody was 10 μg/mL, and the antibody was diluted for 12 gradients. Each diluted monoclonal antibody was added to ELISA wells with 100 μL/well, and the plate was incubated at room temperature for 1 h. Each sample was added to duplicate wells in parallel. The plate was washed with PBST for 3 times, and HRP-anti human IgG Fc secondary antibody prepared with PBST was diluted at an appropriate ratio, and was added to ELISA wells at 100 μL/well. The plate was incubated at room temperature for 1 h. After washing with PBST for 3 times, TMB developing solution was added at 100 μL/well. […] Each reaction solution was shaken uniformly and OD450 nm was read on a microplate reader. The data was analyzed and EC₅₀ was calculated.
Background: An ELISA detects its analyte on a solid surface through an enzyme-linked reagent.

Experiment [2] addresses T1, Human IL-33-his. The experiment can be described thus: competition ELISA, antibody mixed with IL-33-his-biotin, ST2-Fc on plate; competitor ST2-Fc. The protocol: (§2) ST2-Fc protein was diluted to 1 μg/mL with ELISA coating solution to coat ELISA plate with 100 μL/well. The plate was placed in a wet box at 4° C. for 16 h for coating. The ELISA plate was washed 3 times with PBST, and then was blocked with 2% BSA prepared in PBS at 200 μL/well at room temperature for 2 h. The plate was washed once with PBST, and was patted dry to remove the excess blocking solution. Each monoclonal antibody was diluted with 1% BSA prepared in PBST in a 3-fold gradient. The highest concentration of antibody was 10 μg/mL, and the antibody was diluted for 11 gradients. The diluted antibody was mixed 1:1 with 10 ng/ml IL-33-his-biotin, and then the mixture was added into the ELISA well at 100 μL/well. The plate was incubated at room temperature for 1 h. Each concentration was added to duplicate wells in parallel (maximum final concentration of antibody was […], final concentration of IL-33-his-biotin was 5 ng/mL). Unbound or non-specifically bound primary antibodies were washed out. According to the instructions of the antibody, HRP labeled streptavidin secondary antibody was diluted to an appropriate concentration with antibody diluent solution, then it was added to ELISA plate with 100 μL/well, and was incubated at room temperature for 1 h. The ELISA plate was washed with PBST for 5 times, and was patted dry on absorbent paper to remove excess liquid. TMB developing solution was added with 100 μL/well for development to an appropriate degree. 2M H₂SO₄ was added with 70 μL/well to terminate development, and the absorbance was measured at 450 nm on a multifunctional microplate reader. The data were analyzed.

Experiment [3] has as its target T1, Human IL-33-his. The experiment can be described thus: ELISA, IL-33-his-biotin on streptavidin plate, anti-human Fc detection. The protocol:
SA protein was diluted to 2 μg/mL to coat ELISA plate at 100 μL/well overnight at 4° C. The plate was washed with PBST (PBS containing 0.05% Tween20) for 3 times, and blocked with 2% BSA prepared in PBS at 200 μL/well, at room temperature for 2 h. After the plate was washed twice with PBST, IL-33-his-biotin protein was diluted to 1 μg/mL with 1% BSA prepared in PBST, and was added to ELISA plate at 100 μL/well. The plate was incubated at room temperature for 1 h, and each monoclonal antibody was diluted with 1% BSA prepared in PBST in a 3-fold gradient. The highest concentration of antibody was 10 μg/mL, and the antibody was diluted for 12 gradients. Each diluted monoclonal antibody was added to ELISA wells with 100 μL/well, and the plate was incubated at room temperature for 1 h. Each sample was added to duplicate wells in parallel. The plate was washed with PBST for 3 times, and HRP-anti human IgG Fc secondary antibody prepared with PBST was diluted at an appropriate ratio, and was added to ELISA wells at 100 μL/well. The plate was incubated at room temperature for 1 h. After washing with PBST for 3 times, TMB developing solution was added at 100 μL/well. When the development met expectations, 2M H₂SO₄ was added to terminate the chromogenic reaction at 70 μL/well. Each reaction solution was shaken uniformly and OD450 nm was read on a microplate reader. The data was analyzed and EC₅₀ was calculated.

Experiment [4] addresses T1, Human IL-33-his. As to the kind of experiment: ELISA as Example 9, IL-33-his-biotin on streptavidin plate; run with Hu3, Hu4, Hu5. The protocol:
as §1

In experiment [5] the target is T1, Human IL-33-his. As to the kind of experiment: cell-based or functional assay.
Experiment [6] addresses T1, Human IL-33-his. As to the kind of experiment: SPR Biacore 8K, antibody captured on Protein A/G chip, IL-33-his as analyte, 1:1 model. The procedure: (§3) A chip with covalently coupled Protein A/G (purchased from GE Healthcare, catalog number BR-1005-30) was used to capture each antibody to be tested, and the relevant operating parameters were as follows: The antibody concentration was […], the contact time was 75 s, the flow rate was […], and the regeneration contact time was 30 s. The IL-33-his antigen was diluted with HBS-EP pH7.4 buffer solution (purchased from GE Healthcare, catalog number BR-1006-69). The maximum concentration was 50 nM, and diluted to 0.39 nM by two-fold dilution. Duplicate wells and 0 concentration point well were set, and 6M guanidine hydrochloride solution was used as the regeneration buffer. The sample was injected on Biacore 8K according to the following parameters, the binding time was 180 s, the dissociation time was 900 s, the flow rate was 30 μL/min, and the regeneration contact time was 30 s. After running, Biacore 8K Evaluation Software was used to analyze the data according to the “1:1 binding kinetics model”, and the binding kinetics parameters of each antibody to IL-33 were obtained.
Background: SPR reads the build-up and loss of mass on a sensor chip optically.

Experiment [7] addresses T1, Human IL-33-his. As to the kind of experiment: ELISA as Example 9, IL-33-his-biotin on streptavidin plate.
The target of experiment [8] is T1, Human IL-33-his. The experiment can be described thus: SPR Biacore 8K as Example 14, antibody captured, antigen as analyte; human IL-33 as the control in the cross-reactivity run of Table 3. The protocol: as §3
The experimental methods were referred to Example 14, in which the antigens cynomolgus IL-33 protein (purchased from Sino catalog number 90912-CNAE) and mouse IL-33 protein (purchased from R&D, 3626-ML-010/CF) were used, and human IL-33 protein was used as the control. […]

Experiment [9] concerns the target T1, Human IL-33-his. As to the kind of experiment: competition ELISA as Example 10, ST2-Fc on plate; competitor ST2-Fc. The protocol: as §2
The blocking effect of the above humanized antibodies on the binding of IL-33 to its receptor ST2 was determined by the ELISA method, and the relevant experimental methods were referred to Example 10.

The target in another experiment is T2, Cynomolgus IL-33-his (cynomolgus, UniProt A0A2K5W3I1 112-269, biotinylated in the ELISA of Example 6).
T2 construct: Bought protein; also called cynomolgus IL-33 protein; Cynomolgus monkeys IL-33
T2 sequence: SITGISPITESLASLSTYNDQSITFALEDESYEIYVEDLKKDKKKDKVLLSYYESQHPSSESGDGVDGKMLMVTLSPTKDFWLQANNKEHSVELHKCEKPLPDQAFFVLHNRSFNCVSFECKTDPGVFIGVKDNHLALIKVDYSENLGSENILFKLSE
The experiment can be described thus: SPR Biacore 8K as Example 14, antibody captured, antigen as analyte. The protocol:
as §3
(§4) The experimental methods were referred to Example 14, in which the antigens cynomolgus IL-33 protein (purchased from Sino catalog number 90912-CNAE) and mouse IL-33 protein (purchased from R&D, 3626-ML-010/CF) were used, and human IL-33 protein was used as the control. Both 864F3-Hu4 and 874F7-Hu1 cross-react with cynomolgus IL-33 protein, and are consistent with the characteristics of each antibody binding to human IL-33 protein.

In the next experiment the target is T3, Mouse IL-33 protein (mouse, UniProt Q8BVZ5 109-266).
T3 construct: Bought protein
T3 sequence (looked up): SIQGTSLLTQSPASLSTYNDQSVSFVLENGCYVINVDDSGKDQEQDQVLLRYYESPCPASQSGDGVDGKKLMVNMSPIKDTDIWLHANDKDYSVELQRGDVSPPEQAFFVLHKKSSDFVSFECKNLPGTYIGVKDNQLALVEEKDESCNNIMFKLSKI
The experiment is described as above. The procedure: as §3, §4

Experiment [10] deals with T1, Human IL-33-his. The description is as above. The protocol:
as §3, §4

Experimental findings from patent US20230399394A1 (SUNSHINE GUOJIAN PHARMACEUTICAL SHANGHAI, published 2023) are described below.

By EC50 is commonly meant the concentration that produces a half-maximal response. The low end stands for a more potent agent, the high end for a less potent agent. A word on the IC50: it is the concentration that gives 50% inhibition. Low values mean inhibition by little substance, high ones a need for much substance. As a reminder, the Kd is a measure of binding affinity in units of concentration. As a reminder, the koff is the rate constant with which the complex falls apart. Low readings indicate slow dissociation, high ones fast dissociation. One may read the kon as the rate constant with which the complex forms. A low value points to slow association.

B1: 864F3-ch2 (antibody, human IgG4 S228P, kappa, V domains shown)
VH: QVHLKESGPGLVAPSQSLSITCNVSGFSLSKYGVHWIRQTPGRGLDWLGVLRAGGTISYNSALMSRLSISEDISKSQVFLKMNDLQTDDSAIYFCARDHYYYSSFGGFASWGQGTLVTVSA
VL: DIQMTQSPASQSASLGESVTITCLASQTIATWLAWYQQKPGKSPQLLIYAATRLADGVPSRFSGSGSGTEFSFKISSLQAEDFVIYYCQQLYNTPYTFGGGTKLEIKR
notes: Chimeric: human IgG4 (S228P) and human kappa constant regions; also called chimeric antibody 864F3-ch2
For the molecule B1, the EC50 stood at 169 pM with Human IL-33-his [1], 173 pM with Human IL-33-his [3] and 124 pM with Human IL-33-his [4]. This molecule also had an IC50 with Human IL-33-his [2] of 580 pM.

B2: 864F3-Hu4 (antibody, human IgG4 S228P, kappa, V domains shown)
VH: QVQLQESGPGLVKPSETLSLTCTVSGFSLSKYGVHWIRQPPGKGLEWIGVLRAGGTISYNSALMSRVTISEDISKSQVSLKLSSVTAADTAVYYCARDHYYYSSFGGFASWGQGTLVTVSS
VL: DIQMTQSPSSLSASVGDRVTITCLASQTIATWLAWYQQKPGKSPKLLIYAATRLADGVPSRFSGSGSGTDFTLTISSLQPEDFATYYCQQLYNTPYTFGQGTKVEIKR
notes: Humanized; also called humanized antibody 864F3-Hu4
As for B2, in the experiment with Human IL-33-his [5], the “IC50 of inhibition of IFNγ secretion by NK cells induced by IL-33” value was determined as 904 pM, the “IC50 of inhibition of IL-5 secretion of KU812 cells induced by IL-33” value is 27600 pM, the “IC50 of inhibition of IL-13 secretion of KU812 cells induced by IL-33” value came out at 14700 pM and the “IC50 of the inhibitory effect on IL-6 expression in HUVEC cells induced by IL-33” value worked out at 73 pM. Besides, in the experiment with Human IL-33-his [5], the “IC50 of the inhibitory effect on the IFN-γ secretion of PBMC induced by IL-33” value came out at 1220 pM. Besides, in the experiment with Human IL-33-his [6], the Kd turned out to be 1380 pM, the koff amounted to 0.000447 s⁻¹ and the kon is 323000 M⁻¹ s⁻¹. The molecule further displayed an EC50 with Human IL-33-his [7] of 135 pM. Besides, binding with Human IL-33-his [8] was put at a Kd of 552 pM. In addition, the IC50 with Human IL-33-his [9] is 512 pM. Also, in the experiment with Cynomolgus IL-33-his, binding was put at a Kd of 637 pM, the koff stood at 0.000245 s⁻¹ and the kon was 385000 M⁻¹ s⁻¹. Further, in the experiment with Mouse IL-33 protein, the Kd came to 190000 pM, the koff was determined as 0.0205 s⁻¹ and the kon amounted to 108000 M⁻¹ s⁻¹. Besides, in the experiment with Human IL-33-his [10], the koff is 0.000149 s⁻¹ and the kon turned out to be 270000 M⁻¹ s⁻¹.
